Experimental data from publication PMC4033627 (Biochemistry, 2014).

Key:
[1] = molecular target: ubiquitin (from a pRSETA plasmid, for isothermal titration calorimetry) (UniProt P0CG48 1-76); experiment: ITC
[2] = molecular target: human ubiquitin (from pGEX-6P1) (human, UniProt P0CG48 1-76); experiment: crystal structure

Kd [1] [µM]	binding result [2]	Binder
10.2 ± 0.6	–	catalytic domain of Sst2 (residues 245–435), Sst2^cat (domain or fragment) AGTFKIHAYTEGGKPLRTIYLPKLLKKVFLDVVKPNTKKNLETCGILCGKLRQNAFFITHLVIPLQEATSDTCGTTDEASLFEFQDKHNLLTLGWIHTHPTQTCFMSSVDLHTHCSYQLMLPEAIAIVMAPSKNTSGIFRLLDPEGLQTIVKCRKPGLFHPHEGKVYTMVAQPGHVREINSKLQVVDLRVK
3 ± 0.56	–	Sst2^catE286A (Glu286Ala mutant of the catalytic domain of Sst2) (domain or fragment) AGTFKIHAYTEGGKPLRTIYLPKLLKKVFLDVVKPNTKKNLATCGILCGKLRQNAFFITHLVIPLQEATSDTCGTTDEASLFEFQDKHNLLTLGWIHTHPTQTCFMSSVDLHTHCSYQLMLPEAIAIVMAPSKNTSGIFRLLDPEGLQTIVKCRKPGLFHPHEGKVYTMVAQPGHVREINSKLQVVDLRVK
–	binds	Sst2^catD354A (Asp354Ala mutant of the catalytic domain of Sst2) (domain or fragment) AGTFKIHAYTEGGKPLRTIYLPKLLKKVFLDVVKPNTKKNLETCGILCGKLRQNAFFITHLVIPLQEATSDTCGTTDEASLFEFQDKHNLLTLGWIHTHPTQTCFMSSVALHTHCSYQLMLPEAIAIVMAPSKNTSGIFRLLDPEGLQTIVKCRKPGLFHPHEGKVYTMVAQPGHVREINSKLQVVDLRVK
